This note sets out measurements from patent publication US20240076406A1, “SINGLE DOMAIN ANTIBODIES TARGETING CA-IX AS WELL AS COMPOSITIONS COMPRISING SAME” (National Research Council of Canada, priority 2021, published 2024).

In assay [1] the target is hCA-IX expressed on cells (SKRC52, SKRC59, 67NR^hCA-IX) (human) (UniProt Q16790). Nature of the assay: plate-based cell binding assay, mean fluorescent intensity per cell area, SKRC52 (hCA-IX high) cells.
Assay [2] shares this target. In words: Plate-based cell binding assay, one site specific binding fit; cell line not given.

For the substance cG250 full sized antibody (FSA), the EC50 (read off the curve) in assay [1] was determined as 1 nM. For the same substance, in assay [2], the Bmax (mean fluorescent intensity per cell area) was 575 and the Kd was determined as 1.29 nM.
